Assay results from patent US7816094B2, “Method for quantitative analysis of interactions between HIF-1alpha C-terminal peptides and CBP or p300 proteins and method of screening inhibitors using the same” (Korea Institute of Science and Technology, priority 2006, dated 2010).
Ends that are not written are not given here. * marks the point of attachment. FITC = O=C1OC2(c3ccc(O)cc3Oc3cc(O)ccc32)c2ccc(NC(=S)*)cc21; Ahx = NCCCCCC(=O)O

Columns and labels:
[1] = biological target: T1, GST-CBP (truncated human CBP, amino acids 1-450) (Homo sapiens, UniProt Q92793); assay: Fluorescence polarization (FP)-based binding assay of fluorescein-labeled HIF-1α peptides with GST-CBP; settings: GST-CBP 0 to 3000 nM; FIG. 2A
T1 construct: made in house; host or cells: E. coli BL21
T1 sequence (Q92793 1-450): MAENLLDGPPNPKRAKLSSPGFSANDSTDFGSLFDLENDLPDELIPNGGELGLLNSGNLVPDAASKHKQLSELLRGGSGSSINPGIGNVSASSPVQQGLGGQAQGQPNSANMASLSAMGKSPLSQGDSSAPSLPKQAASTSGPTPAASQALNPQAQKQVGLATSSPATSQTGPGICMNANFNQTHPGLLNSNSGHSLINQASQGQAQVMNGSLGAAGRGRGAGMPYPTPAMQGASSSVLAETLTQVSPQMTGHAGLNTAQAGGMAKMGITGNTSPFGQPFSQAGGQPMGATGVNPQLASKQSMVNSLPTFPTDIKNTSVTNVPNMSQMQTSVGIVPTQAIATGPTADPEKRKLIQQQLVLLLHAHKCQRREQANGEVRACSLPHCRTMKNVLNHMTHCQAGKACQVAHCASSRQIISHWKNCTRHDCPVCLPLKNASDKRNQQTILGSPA
Protocol: (§1) The binding affinity and features between the HIF-1α peptides and CBP or p300 proteins were analyzed by measuring the fluorescence polarization (FP) values that were changed by the formation of a protein-ligand complex through the interaction between the CBP or p300 proteins and the synthesized peptides that were manufactured by the method as described in above Example 1. The FP values were measured with a fluorescence spectrometer (Perkin-Elmer), which was set to have a slit width of 5 nm and a total integration time of 5 seconds. EBC Buffer (50 mM Tris and 120 mM NaCl; pH 8.0, 0.25% Nonidet P (NP)-40) was used for the binding reaction.
Because the cysteine-/histidine-rich 1(CH1) domain of CBP or p300 proteins that binds the C-terminal transactivation domain (C-TAD) of HIF-1α contains the Zn^2+-coordinating centers, an embodiment of the present invention first tested for the importance of Zn^2+ added in the preparation of CBP or p300 proteins by cell lysis and protein elution on their binding to the HIF-1α-derived peptides, wherein the GST-CBP or GST-p300 proteins containing the CH1 domain were prepared by cell lysis and protein elution in the presence or absence of ZnSO4. […] Then, the FP (fluorescence polarization) values were measured. […]

[2] = biological target: T2, GST-p300 (truncated p300, amino acids 1-221) (Homo sapiens, UniProt Q09472); assay: Fluorescence polarization (FP)-based binding assay of fluorescein-labeled HIF-1α peptides with GST-p300; settings: increasing GST-p300 concentrations; FIG. 2B, 3B, 4C, 5B, 5D
T2 construct: made in house; host or cells: E. coli BL21
T2 sequence (Q09472 300-520): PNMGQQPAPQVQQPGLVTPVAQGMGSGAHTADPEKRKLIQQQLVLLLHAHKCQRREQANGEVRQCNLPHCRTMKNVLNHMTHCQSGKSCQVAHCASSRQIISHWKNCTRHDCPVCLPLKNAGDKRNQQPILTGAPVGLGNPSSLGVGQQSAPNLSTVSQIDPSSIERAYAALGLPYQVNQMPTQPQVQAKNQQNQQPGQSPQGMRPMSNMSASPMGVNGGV
Protocol: as §1
Because the cysteine-/histidine-rich 1(CH1) domain of CBP or p300 proteins that binds the C-terminal transactivation domain (C-TAD) of HIF-1α contains the Zn^2+-coordinating centers, an embodiment of the present invention first tested for the importance of Zn^2+ added in the preparation of CBP or p300 proteins by cell lysis and protein elution on their binding to the HIF-1α-derived peptides, wherein the GST-CBP or GST-p300 proteins containing the CH1 domain were prepared by cell lysis and protein elution in the presence or absence of ZnSO4. 800 nM of CBP or p300 proteins in the EBC Buffer prepared from above Example 1 were mixed with 100 nM of F-HIF-1α(776-826, SEQ ID NO: 3) and F-HIF-1α(786-826, SEQ ID NO: 4) peptides at 25° C., respectively. Then, the FP (fluorescence polarization) values were measured.
To compare interactions between the four peptides derived from different regions in HIF-1α C-TAD with CBP or p300, these fluorescein-labeled HIF-1α peptides were mixed with CBP proteins at varying concentrations from 0 to 3000 nM under the conditions of above Example 2-2, and then the FP (fluorescence polarization) values were measured (FIG. 2A).
The dissociation constants of these two peptides were determined to be 157.3 nM for HIF-1α(776-826, SEQ ID NO: 3) and 180.1 nM for HIF-1α(786-826, SEQ ID NO: 4), respectively.

[3] = biological target: T3, GST-p300 / F-HIF-1α-(786-826, SEQ ID NO: 4) interaction (Homo sapiens, UniProt Q09472); assay: Competitive inhibition analysis of the FP-based binding assay (F-HIF-1α-p300 interaction); settings: compared with wild-type peptide; FIG. 6
T3 construct: made in house; host or cells: E. coli BL21 for GST-p300; the tracer peptide was synthesized by Anygen
T3 sequence (Q09472 300-520): as above
Protocol: To compare the importance of Thr-796, Cys-800, and Asn-803 residues in the HIF-1α peptide on its p300 binding activity, an embodiment of the present invention performed competitive inhibition analyses of the FP-based binding assays using single mutant peptides. The mutant peptides were prepared with the method as described below.
Namely, human HIF-1α-(786-826, SEQ ID NO: 4) and its single mutation products prepared by PCR were subcloned into pGEX-2T-1 (Amersham Biosciences), and overexpressed in E. coli BL21 (DE3). After the GST fusion proteins were purified using glutathione-SEPHAROSE (Amersham Biosciences), followed by GST removal with thrombin treatment, the resulting peptides were purified using reverse-phase HPLC and confirmed by MALDI-TOF mass spectrometry. The results of competitive inhibition for HIF-1α-(786-826, SEQ ID NO: 4) peptides with point mutations on the HIF-1α-p300 interaction are depicted in FIG. 6.

Substance | FP values (change) upon mixing with GST-CBP [1] | FP values (change) upon mixing with GST-p300 [2] | competitive inhibition of F-HIF-1α-(786-826, SEQ ID NO: 4) binding to p300 [3]
FITC-ACA-DESGLPQLTSYDCEVNAPIQGSRNLLQGEELLRAL ({FITC-Ahx}-DESGLPQLTSYDCEVNAPIQGSRNLLQGEELLRAL) [HIF-1α(788-822, SEQ ID NO: 6), fluorescein (FITC)-labeled HIF-1α C-terminal peptide, residues 788-822, aminocaproic acid linker] | increased much less than those of the above two peptides | increased much less than those of the above two peptides | –
FITC-ACA-SDLACRLLGQSMDESGLPQLTSYDCEVNAPIQGSRNLLQ ({FITC-Ahx}-SDLACRLLGQSMDESGLPQLTSYDCEVNAPIQGSRNLLQ; cysteine pairing not given here) [HIF-1α(776-814, SEQ ID NO: 5), fluorescein (FITC)-labeled HIF-1α C-terminal peptide, residues 776-814, aminocaproic acid linker] | no increase up to 3000 nM of GST-CBP | no increase upon incubation with GST-p300 | –
N803A: unlabeled HIF-1α (786-826) peptide with single mutation N803A (SMDESGLPQLTSYDCEVAAPIQGSRNLLQGEELLRALDQVN; Amino acid sequence for HIF-1a(786-826)) | – | – | to a little lesser degrees than the wild-type
S-nitrosylated F-HIF-1α (786-826, SEQ ID NO: 4): F-HIF-1α (786-826, SEQ ID NO: 4) treated with SNAP, S-nitrosylated on Cys-800, purified by reverse-phase HPLC | – | only minimal increase in FP with increasing p300 concentrations | –
T796D: unlabeled HIF-1α (786-826) peptide with single mutation T796D (SMDESGLPQLDSYDCEVNAPIQGSRNLLQGEELLRALDQVN; Amino acid sequence for HIF-1a(786-826)) | – | – | to a little lesser degrees than the wild-type
hydroxylated peptide: F-HIF-1α (786-826, SEQ ID NO: 4) hydroxylated on asparagine by recombinant His-FIH-1, purified by reverse-phase HPLC | – | only slightly increased with increasing p300 concentrations | –
peptide treated with N or H kinase fractions: F-HIF-1α (786-826, SEQ ID NO: 4) phosphorylated by normoxic or hypoxic HeLa kinase fractions, purified by reverse-phase HPLC | – | FP increase upon incubation with GST-p300, similar to the untreated peptide | –
